Results published in paper PMC4686834, “Autocrine selection of a GLP-1R G-protein biased agonist with potent antidiabetic effects” (Nature Communications, 2015).

Experiments:
[1] = molecular target: human GLP-1 receptor (stable CHO cell line) (human) (UniProt P43220)
[2] = molecular target: mouse GLP-1 receptor (HEK293 cell line) (mouse) (UniProt O35659)
Sequence of mouse GLP-1 receptor (HEK293 cell line) (mouse) (O35659 22-463): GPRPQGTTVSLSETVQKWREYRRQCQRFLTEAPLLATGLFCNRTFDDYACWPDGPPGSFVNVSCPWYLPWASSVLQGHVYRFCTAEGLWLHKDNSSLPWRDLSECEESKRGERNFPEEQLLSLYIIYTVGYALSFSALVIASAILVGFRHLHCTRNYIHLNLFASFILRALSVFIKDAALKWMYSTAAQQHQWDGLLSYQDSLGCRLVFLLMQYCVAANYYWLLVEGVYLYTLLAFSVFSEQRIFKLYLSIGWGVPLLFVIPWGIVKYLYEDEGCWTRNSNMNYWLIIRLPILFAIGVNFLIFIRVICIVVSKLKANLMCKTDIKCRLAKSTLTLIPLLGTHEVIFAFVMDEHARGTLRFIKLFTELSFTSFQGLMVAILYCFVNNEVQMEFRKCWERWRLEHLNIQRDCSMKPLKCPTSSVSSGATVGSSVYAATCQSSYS

Sequence of human GLP-1 receptor (stable CHO cell line) (human) (P43220 24-463): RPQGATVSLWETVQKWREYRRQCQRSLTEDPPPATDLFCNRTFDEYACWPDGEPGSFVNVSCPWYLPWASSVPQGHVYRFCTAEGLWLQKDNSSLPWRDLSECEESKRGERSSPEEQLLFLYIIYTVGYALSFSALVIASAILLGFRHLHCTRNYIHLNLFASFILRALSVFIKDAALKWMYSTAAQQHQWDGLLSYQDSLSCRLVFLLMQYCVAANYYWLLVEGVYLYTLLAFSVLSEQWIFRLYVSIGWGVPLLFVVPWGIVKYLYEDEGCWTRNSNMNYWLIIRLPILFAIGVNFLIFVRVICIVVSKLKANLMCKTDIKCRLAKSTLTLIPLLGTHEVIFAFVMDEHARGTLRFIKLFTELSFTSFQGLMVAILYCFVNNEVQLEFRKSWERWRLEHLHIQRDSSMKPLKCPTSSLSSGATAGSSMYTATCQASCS

What does the source list for “Exendin-4 (from UniProt P26349 48-87) (peptide)”?
EC50, cAMP production (Gαs; HTRF) in CHO cells expressing human GLP-1R [1]: 0.091 nM; EC50, cAMP production (Gαs; HTRF) in HEK293 cells expressing mouse GLP-1R [2]: 0.322 nM
